Laboratory results from paper PMC9492775.

Target: C3 degradation products deposited on the bacterial surface (human) (UniProt P01024)
Assay: flow cytometry on cells; S. aureus JE2Δsbi spa::Tn opsonised in 10% NHS, incubated with polyclonal anti-human C3d antibody or not, washed, then probed with biotin-labelled Sbi-IV and streptavidin-AF488; gMFI

Sequence of UniProt P01024 (P01024 23-1663): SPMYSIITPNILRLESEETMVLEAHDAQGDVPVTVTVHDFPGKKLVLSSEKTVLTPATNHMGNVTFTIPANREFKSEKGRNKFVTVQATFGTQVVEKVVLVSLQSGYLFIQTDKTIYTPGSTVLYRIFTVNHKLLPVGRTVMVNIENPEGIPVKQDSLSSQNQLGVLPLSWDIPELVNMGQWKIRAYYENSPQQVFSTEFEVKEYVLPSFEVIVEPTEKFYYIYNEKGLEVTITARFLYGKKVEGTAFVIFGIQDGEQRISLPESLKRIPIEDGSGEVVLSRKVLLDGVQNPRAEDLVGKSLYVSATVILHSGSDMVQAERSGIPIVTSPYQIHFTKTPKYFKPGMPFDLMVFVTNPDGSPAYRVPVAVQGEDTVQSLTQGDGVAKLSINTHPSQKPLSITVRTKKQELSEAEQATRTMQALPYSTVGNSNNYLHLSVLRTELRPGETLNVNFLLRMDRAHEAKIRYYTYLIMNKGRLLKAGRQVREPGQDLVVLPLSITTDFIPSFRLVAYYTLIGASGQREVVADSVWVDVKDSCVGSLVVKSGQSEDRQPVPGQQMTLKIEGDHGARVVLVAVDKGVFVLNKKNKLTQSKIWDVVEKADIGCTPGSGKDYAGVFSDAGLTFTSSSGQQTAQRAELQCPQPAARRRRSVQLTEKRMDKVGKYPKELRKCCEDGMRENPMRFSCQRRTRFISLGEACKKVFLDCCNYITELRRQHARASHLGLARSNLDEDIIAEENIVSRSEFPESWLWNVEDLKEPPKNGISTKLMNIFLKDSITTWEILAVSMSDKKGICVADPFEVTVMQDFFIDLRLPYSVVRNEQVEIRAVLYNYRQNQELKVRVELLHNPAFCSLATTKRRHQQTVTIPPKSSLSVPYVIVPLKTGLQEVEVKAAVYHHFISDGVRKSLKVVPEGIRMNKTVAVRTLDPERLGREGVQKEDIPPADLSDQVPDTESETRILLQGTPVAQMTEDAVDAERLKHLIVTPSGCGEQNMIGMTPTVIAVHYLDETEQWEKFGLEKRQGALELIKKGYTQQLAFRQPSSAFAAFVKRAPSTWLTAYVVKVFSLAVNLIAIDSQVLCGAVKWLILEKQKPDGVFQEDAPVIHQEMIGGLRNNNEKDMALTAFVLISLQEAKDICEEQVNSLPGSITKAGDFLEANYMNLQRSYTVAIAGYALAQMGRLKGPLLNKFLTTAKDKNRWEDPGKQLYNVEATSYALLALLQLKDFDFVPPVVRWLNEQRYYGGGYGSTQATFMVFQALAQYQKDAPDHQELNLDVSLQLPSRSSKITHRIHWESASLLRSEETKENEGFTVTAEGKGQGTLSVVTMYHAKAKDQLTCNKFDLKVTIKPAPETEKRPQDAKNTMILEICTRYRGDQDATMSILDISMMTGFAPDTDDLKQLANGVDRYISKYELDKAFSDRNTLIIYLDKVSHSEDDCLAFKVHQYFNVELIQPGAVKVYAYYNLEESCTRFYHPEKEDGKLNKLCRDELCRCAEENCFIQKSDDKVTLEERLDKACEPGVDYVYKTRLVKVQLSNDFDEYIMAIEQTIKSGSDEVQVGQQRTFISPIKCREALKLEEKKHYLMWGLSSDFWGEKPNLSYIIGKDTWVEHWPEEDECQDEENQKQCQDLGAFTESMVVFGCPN

“biotin-labelled Sbi-IV (complement C3 binding domain IV of the staphylococcal Sbi protein) (from UniProt Q931F4 198-266) (domain or fragment)” was tested, and the percent reduction of binding after polyclonal anti-C3d antibodies was 50%.
